Experimental data taken from US20140087995A1 (published 2014).
Numbered stars: 1 amine (or outer) side, 2 acyl side, 3 side chain; on linkers, the order of the positions; unused ones are H or OH. Bridge positions count the residues as written; N and C are the ends. Side chains are listed from the residue outwards. Ends that are not written are not given here. * marks the point of attachment. C20 diacid = O=C(O)CCCCCCCCCCCCCCCCCCC(=O)*; γGlu = O=C(O)[C@H](CCC(=O)[*:2])N[*:1]

T1: rat calcitonin receptor (rat, UniProt P32214 25-516)
T1 construct: whole, on cells; Membranes of transiently transfected BHK tk'ts 13 cells; also called rCTR; rat calcitonin (a) receptor
T1 sequence (looked up): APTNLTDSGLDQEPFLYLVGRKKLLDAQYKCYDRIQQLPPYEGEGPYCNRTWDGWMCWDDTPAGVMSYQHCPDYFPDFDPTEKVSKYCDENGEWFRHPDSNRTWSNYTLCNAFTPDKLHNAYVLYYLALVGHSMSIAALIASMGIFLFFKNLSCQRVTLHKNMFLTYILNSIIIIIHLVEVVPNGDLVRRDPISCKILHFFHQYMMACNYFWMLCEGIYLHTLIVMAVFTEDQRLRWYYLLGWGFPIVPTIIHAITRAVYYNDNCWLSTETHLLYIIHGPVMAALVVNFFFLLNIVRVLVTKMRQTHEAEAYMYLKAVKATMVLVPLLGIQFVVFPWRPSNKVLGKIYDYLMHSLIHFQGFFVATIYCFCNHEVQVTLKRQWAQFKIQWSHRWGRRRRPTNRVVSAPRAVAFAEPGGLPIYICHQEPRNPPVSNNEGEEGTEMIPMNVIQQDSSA

T2: human calcitonin receptor (human, UniProt P30988 25-474)
T2 construct: whole, on cells; Membranes of stably transfected cells; also called hCTR; hCT
T2 sequence (looked up): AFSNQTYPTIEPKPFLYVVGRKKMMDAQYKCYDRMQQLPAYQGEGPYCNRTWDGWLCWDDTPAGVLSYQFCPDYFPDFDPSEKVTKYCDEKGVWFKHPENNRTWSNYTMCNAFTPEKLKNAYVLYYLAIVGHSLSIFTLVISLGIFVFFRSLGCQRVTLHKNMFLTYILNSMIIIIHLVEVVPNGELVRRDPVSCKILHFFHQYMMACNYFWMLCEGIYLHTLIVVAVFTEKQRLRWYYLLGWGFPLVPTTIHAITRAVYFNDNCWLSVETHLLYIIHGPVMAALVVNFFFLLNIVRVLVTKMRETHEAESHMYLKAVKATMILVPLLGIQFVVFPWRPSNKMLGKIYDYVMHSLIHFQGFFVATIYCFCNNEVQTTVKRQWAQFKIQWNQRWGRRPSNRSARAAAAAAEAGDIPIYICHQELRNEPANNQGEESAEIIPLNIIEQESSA

T3: rat amylin receptor (rat calcitonin receptor + rat RAMP 3) (rat, UniProt P32214 25-516; Q9JJ73 23-147)
T3 construct: whole, on cells; Membranes of transiently transfected BHK tk'ts 13 cells; also called rAmylin-R; rat amylin 3(a) receptor
T3 sequence (looked up) 1: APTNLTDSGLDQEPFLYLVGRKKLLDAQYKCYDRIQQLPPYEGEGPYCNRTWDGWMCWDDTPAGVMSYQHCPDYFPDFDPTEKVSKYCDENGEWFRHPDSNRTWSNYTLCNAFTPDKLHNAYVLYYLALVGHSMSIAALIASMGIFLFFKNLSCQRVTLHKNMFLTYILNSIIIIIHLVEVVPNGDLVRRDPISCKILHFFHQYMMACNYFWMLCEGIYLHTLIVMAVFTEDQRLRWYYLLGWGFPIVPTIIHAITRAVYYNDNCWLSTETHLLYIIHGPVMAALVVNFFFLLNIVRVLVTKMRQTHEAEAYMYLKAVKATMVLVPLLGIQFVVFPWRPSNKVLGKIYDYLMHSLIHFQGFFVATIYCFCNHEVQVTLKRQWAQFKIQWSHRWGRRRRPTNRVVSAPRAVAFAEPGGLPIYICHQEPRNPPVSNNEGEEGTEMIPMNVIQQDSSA
T3 sequence (looked up) 2: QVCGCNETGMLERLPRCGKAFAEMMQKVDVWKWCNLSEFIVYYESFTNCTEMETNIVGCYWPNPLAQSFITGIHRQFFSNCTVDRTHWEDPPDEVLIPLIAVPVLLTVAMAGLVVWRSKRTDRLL

T4: rat calcitonin receptor (rat, UniProt P32214 25-516)
T4 construct: whole, on cells; also called rCTR; rat calcitonin (a) receptor
T4 sequence (looked up): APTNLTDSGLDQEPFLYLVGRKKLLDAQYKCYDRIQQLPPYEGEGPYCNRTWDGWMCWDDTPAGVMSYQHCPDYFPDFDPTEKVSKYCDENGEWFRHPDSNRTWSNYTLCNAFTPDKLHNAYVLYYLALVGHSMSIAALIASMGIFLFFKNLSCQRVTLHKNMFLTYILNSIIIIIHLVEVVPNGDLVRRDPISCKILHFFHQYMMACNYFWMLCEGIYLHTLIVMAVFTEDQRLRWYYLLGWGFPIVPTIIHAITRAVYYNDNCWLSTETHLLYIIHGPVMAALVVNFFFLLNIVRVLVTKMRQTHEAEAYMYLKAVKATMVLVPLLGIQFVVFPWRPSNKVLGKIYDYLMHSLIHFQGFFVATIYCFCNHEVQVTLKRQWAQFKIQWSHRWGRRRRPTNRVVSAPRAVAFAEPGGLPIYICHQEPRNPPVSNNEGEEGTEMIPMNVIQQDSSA

T5: human calcitonin receptor (human, UniProt P30988 25-474)
T5 construct: whole, on cells; also called hCTR; hCT
T5 sequence (looked up): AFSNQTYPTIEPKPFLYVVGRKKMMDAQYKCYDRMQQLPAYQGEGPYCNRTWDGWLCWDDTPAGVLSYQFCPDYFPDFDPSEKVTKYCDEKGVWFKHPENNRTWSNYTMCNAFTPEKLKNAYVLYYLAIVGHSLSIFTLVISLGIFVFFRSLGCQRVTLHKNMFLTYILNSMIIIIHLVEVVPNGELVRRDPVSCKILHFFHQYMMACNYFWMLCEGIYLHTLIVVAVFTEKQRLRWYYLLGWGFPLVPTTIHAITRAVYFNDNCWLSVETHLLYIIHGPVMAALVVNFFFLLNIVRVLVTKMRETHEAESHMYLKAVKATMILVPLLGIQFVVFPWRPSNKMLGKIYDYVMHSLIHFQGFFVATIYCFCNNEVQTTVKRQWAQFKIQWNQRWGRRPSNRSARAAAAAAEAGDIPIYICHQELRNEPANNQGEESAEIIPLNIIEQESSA

T6: rat amylin receptor (rat calcitonin receptor + rat RAMP 3) (rat, UniProt P32214 25-516; Q9JJ73 23-147)
T6 construct: whole, on cells; also called rAmylin-R; rat amylin 3(a) receptor
T6 sequence (looked up) 1: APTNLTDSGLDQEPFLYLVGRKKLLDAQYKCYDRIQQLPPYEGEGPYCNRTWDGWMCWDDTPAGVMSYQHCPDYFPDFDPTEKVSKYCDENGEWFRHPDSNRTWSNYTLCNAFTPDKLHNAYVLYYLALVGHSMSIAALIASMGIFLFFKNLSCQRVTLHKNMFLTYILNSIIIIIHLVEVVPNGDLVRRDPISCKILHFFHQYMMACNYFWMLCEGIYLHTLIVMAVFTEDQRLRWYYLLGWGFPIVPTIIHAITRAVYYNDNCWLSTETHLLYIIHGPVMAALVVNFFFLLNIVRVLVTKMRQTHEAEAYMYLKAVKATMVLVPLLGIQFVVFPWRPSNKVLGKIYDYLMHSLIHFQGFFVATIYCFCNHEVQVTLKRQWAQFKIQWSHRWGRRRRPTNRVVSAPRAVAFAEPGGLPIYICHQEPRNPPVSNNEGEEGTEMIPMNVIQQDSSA
T6 sequence (looked up) 2: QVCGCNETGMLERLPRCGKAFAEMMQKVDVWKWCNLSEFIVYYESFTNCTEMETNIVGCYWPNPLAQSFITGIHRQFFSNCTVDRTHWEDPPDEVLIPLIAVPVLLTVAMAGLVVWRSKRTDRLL


Tests used:
rat calcitonin receptor [1] = target: T1, rat calcitonin receptor; assay: ratio of IC50 on rat calcitonin receptor to IC50 on rat amylin receptor (reference m40)
[2] = target: T2, human calcitonin receptor; assay: ratio of IC50 on human calcitonin receptor to IC50 on human amylin receptor (reference m42), SPA competition
Experimental: The resulting pellet was resuspended, homogenized and centrifuged (20.000 rpm, 15 min) in a buffer containing 20 mM Na-HEPES and 0.1 mM EDTA (pH 7.4, buffer 2). The resulting pellet was resuspended in buffer 2 and protein concentration was measured (BCA protein Assay, Pierce). The homogenate was kept cold during the whole procedure. The membranes were kept at −80° C. until use. The assay was performed in a 384 well Optiplate (PerkinElmer) in a total volume of 40 ul. Membranes were mixed with SPA beads. Final concentration of membranes 35 ng/μL final and SPA beads was 0.05 mg/well. Test-compounds were dissolved in DMSO and further diluted in assay buffer (50 mM Hepes, pH 7.4, 1 mM CaCl2, 5 mM MgCl₂, 0.1% OA and 0.02% Tween20). […] The final mixture was incubated with shaking at 400 rpm for 120 min at 25° C. prior to centrifugation (1500 rpm, 10 min). Samples were analyzed on TopCounter™ (Packard). The IC₅₀ was calculated using (one site binding competition analysis) GraphPad Prism5 as a measure of receptor affinity.
Membranes were prepared in the following way; the cells were rinsed with PBS and incubated with Versene for approximately 5 min before harvesting. The cells were flushed with PBS and the cell-suspension was centrifuged for 5 min at 1000 rpm. Cells were homogenized (Ultrathurrax) in a buffer containing 20 mM Na-HEPES and 10 mM EDTA (pH 7.4) and centrifuged at 20.000 rpm for 15 min. The resulting pellet was resuspended, homogenized and centrifuged (20.000 rpm, 15 min) in a buffer containing 20 mM Na-HEPES and 0.1 mM EDTA (pH 7.4, buffer 2). The resulting pellet was resuspended in buffer 2 and protein concentration was measured (BCA protein Assay, Pierce). The homogenate was kept cold during the whole procedure. The membranes were kept at −80° C. until use. Assay was performed in a 384 well Optiplate (PerkinElmer) in a total volume of 40 ul. Membranes were mixed with SPA beads.

rat calcitonin receptor [3] = target: T1, rat calcitonin receptor; assay: SPA competition with 125I-calcitonin on membranes of BHK tk'ts 13 cells with rat calcitonin receptor (Assay VIII)
[4] = target: T3, rat amylin receptor (rat calcitonin …); assay: SPA competition with 125I-rat amylin on membranes of BHK tk'ts 13 cells with rat calcitonin receptor + rat RAMP3 (Assay VI)
rat calcitonin receptor [5] = target: T4, rat calcitonin receptor; assay: ratio of binding IC50s: rat calcitonin receptor over rat amylin receptor (reference)
[6] = target: T5, human calcitonin receptor; assay: ratio of binding IC50s: human calcitonin receptor over human amylin receptor (reference)
Summary of the method: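 Membranes (35 ng/μL final) + SPA beads, 50 mM Hepes pH 7.4 buffer with 1 mM CaCl2, 5 mM MgCl₂, 0.1% OA, 0.02% Tween20; 120 min, 25° C, shaking; centrifuged, counted; IC₅₀ by one-site binding competition.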

rat calcitonin receptor [7] = target: T4, rat calcitonin receptor; assay: SPA competition with 125I-calcitonin, membranes of BHK cells with rat calcitonin receptor (Assay VIII)
[8] = target: T6, rat amylin receptor (rat calcitonin …); assay: SPA competition with 125I-rat amylin, membranes of BHK cells with rat calcitonin receptor + rat RAMP3 (Assay VI)

Ratio rCT/rAmylin binding (rat calcitonin receptor [1]) | Ratio hCT/hAmylin binding [2] | IC50 (rat calcitonin receptor [3]) [nM] | IC50 [4] [nM] | Ratio rCT/rAmylin binding (rat calcitonin receptor [5]) | Ratio hCT/hAmylin binding [6] | IC50 (rat calcitonin receptor [7]) [nM] | IC50 [8] [nM] | Binder
88.5 | 17.6 | 16.1 | 0.182 |  |  |  |  | K([γGlu-γGlu-C20 diacid])CNTATCATQRLAEFLRHSSPNFGAIPSSTNVGPETY-NH2 (disulfide 2-7 (inferred), Synthetic acylated analogue of human amylin)
 |  |  |  | 96.5 | 60.8 | 34.2 | 0.355 | K([γGlu-C20 diacid])CNTATCATQRLAHFLRHSSPNFGAIPSSTNVGSNTY-NH2 (disulfide 2-7; N-terminus assumed; SMILES CC[C@H](C)[C@H](NC(=O)[C@H](C)NC(=O)CNC(=O)[C@H](Cc1ccccc1)NC(=O)[C@H](CC(N)=O)NC(=O)[C@@H]1CCCN1C(=O)[C@H](CO)NC(=O)[C@H](CO)NC(=O)[C@H](Cc1c[nH]cn1)NC(=O)[C@H](CCCNC(=N)N)NC(=O)[C@H](CC(C)C)NC(=O)[C@H](Cc1ccccc1)NC(=O)[C@H](Cc1c[nH]cn1)NC(=O)[C@H](C)NC(=O)[C@H](CC(C)C)NC(=O)[C@H](CCCNC(=N)N)NC(=O)[C@H](CCC(N)=O)NC(=O)[C@@H](NC(=O)[C@H](C)NC(=O)[C@@H]1CSSC[C@H](NC(=O)[C@@H](N)CCCCNC(=O)CC[C@H](NC(=O)CCCCCCCCCCCCCCCCCCC(=O)O)C(=O)O)C(=O)N[C@@H](CC(N)=O)C(=O)N[C@@H]([C@@H](C)O)C(=O)N[C@@H](C)C(=O)N[C@@H]([C@@H](C)O)C(=O)N1)[C@@H](C)O)C(=O)N1CCC[C@H]1C(=O)N[C@@H](CO)C(=O)N[C@@H](CO)C(=O)N[C@H](C(=O)N[C@@H](CC(N)=O)C(=O)N[C@H](C(=O)NCC(=O)N[C@@H](CO)C(=O)N[C@@H](CC(N)=O)C(=O)N[C@H](C(=O)N[C@@H](Cc1ccc(O)cc1)C(N)=O)[C@@H](C)O)C(C)C)[C@@H](C)O, synthetic analogue of human amylin; also called compound 70) [N^ε1-[(4S)-4-carboxy-4-(19-carboxynonadecanoylamino)butanoyl]-[His14,Arg17,Pro21,Pro27]-h-amylin]
